The test deals with GI (K607T)-mCherry-CAAX (Arabidopsis thaliana) (UniProt Q9SQI2). As to the kind of experiment: cell-based or functional assay.
Chain of UniProt Q9SQI2 (Q9SQI2 other isoform, or with tags, fused parts or gaps K607T K607T): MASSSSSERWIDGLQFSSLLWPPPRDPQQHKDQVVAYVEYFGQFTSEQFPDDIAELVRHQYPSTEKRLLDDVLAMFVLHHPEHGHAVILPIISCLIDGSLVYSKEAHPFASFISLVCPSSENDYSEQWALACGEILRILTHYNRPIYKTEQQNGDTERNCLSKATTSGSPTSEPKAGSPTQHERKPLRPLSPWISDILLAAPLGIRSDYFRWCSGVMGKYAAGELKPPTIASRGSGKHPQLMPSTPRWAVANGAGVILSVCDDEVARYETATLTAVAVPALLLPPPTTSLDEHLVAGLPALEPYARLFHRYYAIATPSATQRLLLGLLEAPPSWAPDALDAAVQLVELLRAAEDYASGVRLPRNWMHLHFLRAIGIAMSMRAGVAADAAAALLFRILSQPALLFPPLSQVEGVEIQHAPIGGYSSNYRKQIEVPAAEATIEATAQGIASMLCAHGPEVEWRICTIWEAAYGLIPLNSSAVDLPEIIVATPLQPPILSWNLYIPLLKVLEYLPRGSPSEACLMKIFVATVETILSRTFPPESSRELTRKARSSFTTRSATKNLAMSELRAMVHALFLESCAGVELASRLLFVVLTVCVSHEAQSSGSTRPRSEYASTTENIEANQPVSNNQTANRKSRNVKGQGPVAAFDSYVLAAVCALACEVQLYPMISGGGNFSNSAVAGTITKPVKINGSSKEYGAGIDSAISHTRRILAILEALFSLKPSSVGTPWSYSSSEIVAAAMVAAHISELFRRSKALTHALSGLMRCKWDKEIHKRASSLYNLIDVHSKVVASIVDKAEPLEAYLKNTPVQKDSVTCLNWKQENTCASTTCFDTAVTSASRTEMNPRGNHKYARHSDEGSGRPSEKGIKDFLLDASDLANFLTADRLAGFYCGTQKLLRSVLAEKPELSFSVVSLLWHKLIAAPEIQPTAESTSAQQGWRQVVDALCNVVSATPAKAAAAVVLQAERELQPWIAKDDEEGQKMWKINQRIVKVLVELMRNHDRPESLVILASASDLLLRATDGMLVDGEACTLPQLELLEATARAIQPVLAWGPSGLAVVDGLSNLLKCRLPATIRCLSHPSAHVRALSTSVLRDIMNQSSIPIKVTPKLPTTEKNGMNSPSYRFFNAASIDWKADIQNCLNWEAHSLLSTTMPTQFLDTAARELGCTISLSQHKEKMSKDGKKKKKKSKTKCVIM

“NES-FKF1(K15T)-YFP-linker-Rac1ca (FKF1-Rac) G128D (from UniProt P63000 1-188)” came in with a percentage of cells with lamellipodia, increase upon illumination of 87%.

For “NES-FKF1(K15T)-YFP-linker-Rac1ca (FKF1-Rac) WT (from UniProt P63000 1-188)”, the percentage of cells with lamellipodia, increase upon illumination amounted to 46%.

Values taken from patent publication US20120237966A1.
